Literature values as cited in publication PMC7174325.
Like-named read-outs stand apart in the source and are kept apart here.

Experiments:
BAK (Homo sapiens) = BAK (Homo sapiens) (UniProt Q16611); assay: ITC
BAX (Homo sapiens) = BAX (Homo sapiens) (UniProt Q07812); assay: ITC
BAD (Homo sapiens) [1] = target: BAD (Homo sapiens) (UniProt Q92934)
BAD (Homo sapiens) [2] = target: BAD (Homo sapiens) (UniProt Q92934); remark: listed apart in the source

Sequence of BCL-w (Q92843 2-193): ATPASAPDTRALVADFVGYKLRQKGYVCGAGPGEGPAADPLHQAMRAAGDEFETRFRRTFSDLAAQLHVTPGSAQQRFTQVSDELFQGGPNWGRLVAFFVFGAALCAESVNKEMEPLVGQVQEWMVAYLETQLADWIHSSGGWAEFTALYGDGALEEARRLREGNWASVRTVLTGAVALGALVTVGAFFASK
Sequence of BAD (Homo sapiens) (Q92934 whole entry): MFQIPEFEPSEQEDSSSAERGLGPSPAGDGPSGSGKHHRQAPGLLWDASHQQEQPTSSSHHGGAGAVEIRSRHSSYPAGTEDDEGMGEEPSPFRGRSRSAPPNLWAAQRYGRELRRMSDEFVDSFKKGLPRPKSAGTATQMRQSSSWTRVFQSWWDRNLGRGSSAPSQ
Sequence of BCL-w monomer (Q92843 2-193): as the sequence (Q92843 2-193) above
Sequence of BCL-w homodimer (Q92843 2-193): as above
Sequence of BAX (Homo sapiens) (Q07812 whole entry): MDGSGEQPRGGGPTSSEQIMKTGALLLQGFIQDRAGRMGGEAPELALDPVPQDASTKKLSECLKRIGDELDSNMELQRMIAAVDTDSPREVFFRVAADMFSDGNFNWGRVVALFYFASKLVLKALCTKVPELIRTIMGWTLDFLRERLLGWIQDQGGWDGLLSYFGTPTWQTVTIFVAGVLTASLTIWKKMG
Sequence of BAK (Homo sapiens) (Q16611 2-211): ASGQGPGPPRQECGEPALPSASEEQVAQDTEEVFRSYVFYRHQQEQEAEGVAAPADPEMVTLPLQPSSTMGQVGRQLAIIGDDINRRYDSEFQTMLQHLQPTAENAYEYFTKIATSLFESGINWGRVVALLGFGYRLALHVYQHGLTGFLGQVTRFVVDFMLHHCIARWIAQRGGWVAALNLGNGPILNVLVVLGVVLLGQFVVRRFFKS

BCL-w (from UniProt Q92843)
Kd (BAK (Homo sapiens)): 114 nM
Kd (BAX (Homo sapiens)): 22.9 nM

BCL-w monomer (from UniProt Q92843)
Kd (BAD (Homo sapiens) [1]): 14 nM

BCL-w homodimer (from UniProt Q92843)
Kd (BAD (Homo sapiens) [2]): 150 nM
